Data taken from patent US9566335.

Columns and labels:
[1] = biological target: biotinylated peptide X-…(biotin), X = E; test: phage ELISA, biotinylated peptide on neutravidin; phage 10×
[2] = biological target: biotinylated peptide X-…(biotin), X = T; test: as above
[3] = biological target: biotinylated peptide X-…(biotin), X = D; test: as above
[4] = biological target: biotinylated peptide X-…(biotin), X = G; test: as above
[5] = biological target: biotinylated peptide X-…(biotin), X = N; test: as above
[6] = biological target: biotinylated peptide X-…(biotin), X = H; test: as above
[7] = biological target: biotinylated peptide X-…(biotin), X = M; test: as above
[8] = biological target: biotinylated peptide X-…(biotin), X = Q; test: as above
[9] = biological target: biotinylated peptide X-…(biotin), X = C; test: as above
[10] = biological target: biotinylated peptide X-…(biotin), X = R; test: as above
[11] = biological target: biotinylated peptide X-…(biotin), X = K; test: as above
[12] = biological target: biotinylated peptide X-…(biotin), X = I; test: as above
[13] = biological target: biotinylated peptide X-…(biotin), X = P; test: as above
[14] = biological target: biotinylated peptide X-…(biotin), X = S; test: as above
[15] = biological target: biotinylated peptide X-…(biotin), X = V; test: as above
[16] = biological target: biotinylated peptide X-…(biotin), X = A; test: as above
[17] = biological target: biotinylated peptide X-…(biotin), X = E; test: phage ELISA, biotinylated peptide on neutravidin
[18] = biological target: biotinylated peptide X-…(biotin), X = T; test: phage ELISA, biotinylated peptide on neutravidin
[19] = biological target: biotinylated peptide X-…(biotin), X = D; test: phage ELISA, biotinylated peptide on neutravidin
[20] = biological target: biotinylated peptide X-…(biotin), X = G; test: phage ELISA, biotinylated peptide on neutravidin
[21] = biological target: biotinylated peptide X-…(biotin), X = N; test: phage ELISA, biotinylated peptide on neutravidin
[22] = biological target: biotinylated peptide X-…(biotin), X = H; test: phage ELISA, biotinylated peptide on neutravidin
[23] = biological target: biotinylated peptide X-…(biotin), X = M; test: phage ELISA, biotinylated peptide on neutravidin
[24] = biological target: biotinylated peptide X-…(biotin), X = Q; test: phage ELISA, biotinylated peptide on neutravidin
[25] = biological target: biotinylated peptide X-…(biotin), X = C; test: phage ELISA, biotinylated peptide on neutravidin
[26] = biological target: biotinylated peptide X-…(biotin), X = R; test: phage ELISA, biotinylated peptide on neutravidin
[27] = biological target: biotinylated peptide X-…(biotin), X = K; test: phage ELISA, biotinylated peptide on neutravidin
[28] = biological target: biotinylated peptide X-…(biotin), X = I; test: phage ELISA, biotinylated peptide on neutravidin
[29] = biological target: biotinylated peptide X-…(biotin), X = P; test: phage ELISA, biotinylated peptide on neutravidin
[30] = biological target: biotinylated peptide X-…(biotin), X = S; test: phage ELISA, biotinylated peptide on neutravidin
[31] = biological target: biotinylated peptide X-…(biotin), X = V; test: phage ELISA, biotinylated peptide on neutravidin
[32] = biological target: biotinylated peptide X-…(biotin), X = A; test: phage ELISA, biotinylated peptide on neutravidin

B1: Phage displayed wild-type E. coli ClpS (truncated wildtype ClpS polypeptide, FLAG-tagged, fused to phage coat protein p3) (protein)
chain: KPPSMYKVILVNDDYTPMEFVIDVLQKFFSYDVERATQLMLAVHYQGKAICGVFTAEVAETKVAMVNKYARENEHPLLCTLEKA
[1]
  phage ELISA signal (A450): -0.26
[2]
  phage ELISA signal (A450): 0.01
[3]
  phage ELISA signal (A450): -0.29
[4]
  phage ELISA signal (A450): -0.04
[5]
  phage ELISA signal (A450): -0.05
[6]
  phage ELISA signal (A450): -0.03
[7]
  phage ELISA signal (A450): -0.11
[8]
  phage ELISA signal (A450): -0.18
[9]
  phage ELISA signal (A450): -0.23
[10]
  phage ELISA signal (A450): 0.13
[11]
  phage ELISA signal (A450): 0.05
[12]
  phage ELISA signal (A450): -0.16
[13]
  phage ELISA signal (A450): -0.07
[14]
  phage ELISA signal (A450): -0.01
[15]
  phage ELISA signal (A450): -0.09
[16]
  phage ELISA signal (A450): -0.29
[17]
  phage ELISA signal (A450): -0.26
[18]
  phage ELISA signal (A450): 0.01
[19]
  phage ELISA signal (A450): -0.29
[20]
  phage ELISA signal (A450): -0.04
[21]
  phage ELISA signal (A450): -0.05
[22]
  phage ELISA signal (A450): -0.03
[23]
  phage ELISA signal (A450): -0.11
[24]
  phage ELISA signal (A450): -0.18
[25]
  phage ELISA signal (A450): -0.23
[26]
  phage ELISA signal (A450): 0.13
[27]
  phage ELISA signal (A450): 0.05
[28]
  phage ELISA signal (A450): -0.016
[29]
  phage ELISA signal (A450): -0.07
[30]
  phage ELISA signal (A450): -0.01
[31]
  phage ELISA signal (A450): -0.09
[32]
  phage ELISA signal (A450): -0.29
